Data from PMC4510984 (Nature, 2015).
Like-named read-outs stand apart in the source and are kept apart here.

Assays:
Assay in all cases: transmission electron microscopy
[1] = molecular target: the molecule itself
[2] = molecular target: the molecule itself; remark: listed apart in the source
[3] = molecular target: the molecule itself; remark: listed apart in the source

Protein | stoichiometry N [1] | stoichiometry N [2] | stoichiometry N [3]
human phosphofructokinase-1, platelet isoform (PFKP), recombinant wild type (enzyme, UniProt Q01813-1 1-784, looked up) MDADDSRAPKGSLRKFLEHLSGAGKAIGVLTSGGDAQGMNAAVRAVVRMGIYVGAKVYFIYEGYQGMVDGGSNIAEADWESVSSILQVGGTIIGSARCQAFRTREGRLKAACNLLQRGITNLCVIGGDGSLTGANLFRKEWSGLLEELARNGQIDKEAVQKYAYLNVVGMVGSIDNDFCGTDMTIGTDSALHRIIEVVDAIMTTAQSHQRTFVLEVMGRHCGYLALVSALACGADWVFLPESPPEEGWEEQMCVKLSENRARKKRLNIIIVAEGAIDTQNKPITSEKIKELVVTQLGYDTRVTILGHVQRGGTPSAFDRILASRMGVEAVIALLEATPDTPACVVSLNGNHAVRLPLMECVQMTQDVQKAMDERRFQDAVRLRGRSFAGNLNTYKRLAIKLPDDQIPKTNCNVAVINVGAPAAGMNAAVRSAVRVGIADGHRMLAIYDGFDGFAKGQIKEIGWTDVGGWTGQGGSILGTKRVLPGKYLEEIATQMRTHSINALLIIGGFEAYLGLLELSAAREKHEEFCVPMVMVPATVSNNVPGSDFSIGADTALNTITDTCDRIKQSASGTKRRVFIIETMGGYCGYLANMGGLAAGADAAYIFEEPFDIRDLQSNVEHLTEKMKTTIQRGLVLRNESCSENYTTDFIYQLYSEEGKGVFDCRKNVLGHMQQGGAPSPFDRNFGTKISARAMEWITAKLKEARGRGKKFTTDDSICVLGISKRNVIFQPVAELKKQTDFEHRIPKEQWWLKLRPLMKILAKYKASYDVSDSGQLEHVQPWSV | 4 | 2 | –
PFKP-F649L (enzyme, human, UniProt Q01813-1 1-784, looked up) MDADDSRAPKGSLRKFLEHLSGAGKAIGVLTSGGDAQGMNAAVRAVVRMGIYVGAKVYFIYEGYQGMVDGGSNIAEADWESVSSILQVGGTIIGSARCQAFRTREGRLKAACNLLQRGITNLCVIGGDGSLTGANLFRKEWSGLLEELARNGQIDKEAVQKYAYLNVVGMVGSIDNDFCGTDMTIGTDSALHRIIEVVDAIMTTAQSHQRTFVLEVMGRHCGYLALVSALACGADWVFLPESPPEEGWEEQMCVKLSENRARKKRLNIIIVAEGAIDTQNKPITSEKIKELVVTQLGYDTRVTILGHVQRGGTPSAFDRILASRMGVEAVIALLEATPDTPACVVSLNGNHAVRLPLMECVQMTQDVQKAMDERRFQDAVRLRGRSFAGNLNTYKRLAIKLPDDQIPKTNCNVAVINVGAPAAGMNAAVRSAVRVGIADGHRMLAIYDGFDGFAKGQIKEIGWTDVGGWTGQGGSILGTKRVLPGKYLEEIATQMRTHSINALLIIGGFEAYLGLLELSAAREKHEEFCVPMVMVPATVSNNVPGSDFSIGADTALNTITDTCDRIKQSASGTKRRVFIIETMGGYCGYLANMGGLAAGADAAYIFEEPFDIRDLQSNVEHLTEKMKTTIQRGLVLRNESCSENYTTDLIYQLYSEEGKGVFDCRKNVLGHMQQGGAPSPFDRNFGTKISARAMEWITAKLKEARGRGKKFTTDDSICVLGISKRNVIFQPVAELKKQTDFEHRIPKEQWWLKLRPLMKILAKYKASYDVSDSGQLEHVQPWSV | – | – | 2
